Measurements: patent US20170306033A1 (Amgen, published 2017)

Legend:
Experiment in all cases: cell-based or functional assay
[1] = molecular target: T1, human CGRP receptor (human, UniProt Q16602 23-461; O60894 27-148)
[2] = molecular target: T2, human PAC1 receptor (human, UniProt P41586 21-468)
T2 sequence: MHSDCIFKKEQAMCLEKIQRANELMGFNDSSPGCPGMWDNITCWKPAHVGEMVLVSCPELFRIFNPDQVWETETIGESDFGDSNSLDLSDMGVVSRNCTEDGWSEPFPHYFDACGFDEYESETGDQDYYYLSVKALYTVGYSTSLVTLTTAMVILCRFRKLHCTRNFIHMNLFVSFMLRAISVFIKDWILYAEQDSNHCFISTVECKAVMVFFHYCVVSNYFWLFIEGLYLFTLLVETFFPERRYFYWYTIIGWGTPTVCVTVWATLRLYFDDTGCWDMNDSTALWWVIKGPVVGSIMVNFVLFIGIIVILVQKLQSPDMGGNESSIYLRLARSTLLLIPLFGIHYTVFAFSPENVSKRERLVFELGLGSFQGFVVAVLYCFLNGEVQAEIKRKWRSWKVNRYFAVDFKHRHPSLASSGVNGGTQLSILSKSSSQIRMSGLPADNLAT

[3] = molecular target: T1, human CGRP receptor; remark: listed apart in the source
[4] = molecular target: T2, human PAC1 receptor; remark: listed apart in the source

T1 sequence (Q16602 23-461 limits assumed, chain 1 of 2): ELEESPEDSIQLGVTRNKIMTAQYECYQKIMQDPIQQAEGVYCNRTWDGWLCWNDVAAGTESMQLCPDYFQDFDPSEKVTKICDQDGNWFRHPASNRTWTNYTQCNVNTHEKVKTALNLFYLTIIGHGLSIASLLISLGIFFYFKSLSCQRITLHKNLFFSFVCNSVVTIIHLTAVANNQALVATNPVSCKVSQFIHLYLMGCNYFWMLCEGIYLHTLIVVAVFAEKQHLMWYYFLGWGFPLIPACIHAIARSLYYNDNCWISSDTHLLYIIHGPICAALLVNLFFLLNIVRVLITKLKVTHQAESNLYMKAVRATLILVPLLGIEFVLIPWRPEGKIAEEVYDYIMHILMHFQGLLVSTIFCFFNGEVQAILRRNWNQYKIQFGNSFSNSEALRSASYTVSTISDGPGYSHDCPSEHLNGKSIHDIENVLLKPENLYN
T1 sequence (O60894 27-148 limits assumed, chain 2 of 2): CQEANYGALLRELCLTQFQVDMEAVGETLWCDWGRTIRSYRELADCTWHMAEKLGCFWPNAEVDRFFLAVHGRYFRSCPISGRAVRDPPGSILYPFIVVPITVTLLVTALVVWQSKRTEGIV

Row | Binder | Human CGRP Receptor IC50 [1] | Human PAC1 Receptor IC50 [2] | % inhibition of human CGRPR [3] | % inhibition of human PAC1 [4]
1 | iPS:386705 (bispecific antibody, human IgG1, lambda, N297G) light: QSVLTQPPSVSAAPGQKVTISCSGSSSNIGNNYVSWYQQLPGTAPKLLIYDNNKRPSGIPDRFSGSKSGTSTTLGITGLQTGDEADYYCGTWDSRLSAVVFGGGTKLTVLGQPKANPTVTLFPPSSEELQANKATLVCLISDFYPGAVTVAWKADGSPVKAGVETTKPSKQSNNKYAASSYLSLTPEQWKSHRSYSCQVTHEGSTVEKTVAPTECS heavy: not shown | 0.43 nM | 605 nM |  | 
2 | iPS:386707 (bispecific antibody, human IgG1, lambda, N297G) light: QSVLTQPPSVSAAPGQKVTISCSGSSSNIGNNYVSWYQQLPGTAPKLLIYDNNKRPSGIPDRFSGSKSGTSTTLGITGLQTGDEADYYCGTWDSRLSAVVFGGGTKLTVLGQPKANPTVTLFPPSSEELQANKATLVCLISDFYPGAVTVAWKADGSPVKAGVETTKPSKQSNNKYAASSYLSLTPEQWKSHRSYSCQVTHEGSTVEKTVAPTECS heavy: not shown | 0.47 nM | 740 nM |  | 
3 | iPS:386709 (bispecific antibody, human IgG1, lambda, N297G) light: QSVLTQPPSVSAAPGQKVTISCSGSSSNIGNNYVSWYQQLPGTAPKLLIYDNNKRPSGIPDRFSGSKSGTSATLGITGLQTGDEADYYCGTWDSRLSAVVFGGGTKLTVLGQPKANPTVTLFPPSSEELQANKATLVCLISDFYPGAVTVAWKADGSPVKAGVETTKPSKQSNNKYAASSYLSLTPEQWKSHRSYSCQVTHEGSTVEKTVAPTECS heavy: not shown | 0.47 nM | 432 nM |  | 
4 | iPS:327270 (bispecific antibody, human IgG1, kappa, lambda, N297G) light 1: EIVLTQSPATLSLSPGERATLSCRASQSVGRSLHWYQQKPGQAPRLLIKYASQSLSGIPARFSGSGSGTDFTLTISSLEPEDFAVYYCHQSSRLPFTFGPGTKVDIKRTVAAPSVFIFPPSDEQLKSGTASVVCLLNNFYPREAKVQWKVDNALQSGNSQESVTEQDSKDSTYSLESTLTLSKADYEKHKVYACEVTHQGLSSPVTKSFNRGEC heavy 1: not shown light 2: not shown heavy 2: not shown |  |  | 71% | 82%
5 | iPS:327112 (bispecific antibody, human IgG1, kappa, lambda, N297G) light 1: EIVLTQSPATLSLSPGERATLSCRASQSVGRSLHWYQQKPGQAPRLLIKYASQSLSGIPARFSGSGSGTDFTLTISSLEPEDFAVYYCHQSSRLPFTFGPGTKVDIKRTVAAPSVFIFPPSDEQLKSGTASVVCLLNNFYPREAKVQWKVDNALQSGNSQESVTEQDSKDSTYSLESTLTLSKADYEKHKVYACEVTHQGLSSPVTKSFNRGEC heavy 1: not shown light 2: not shown heavy 2: not shown |  |  | 84% | 104%
6 | iPS:327272 (bispecific antibody, human IgG1, kappa, lambda, N297G) light 1: DIQMTQSPSSLSASVGDRITITCRASQSISRYLNWYQQKPGKAPKLLIYAASSLQSGIPSRFSGSGSGTDFTLTINSLQPEDFATYFCQQSYSPPFTFGEGTKVDIKRTVAAPSVFIFPPSDEQLKSGTASVVCLLNNFYPREAKVQWKVDNALQSGNSQESVTEQDSKDSTYSLESTLTLSKADYEKHKVYACEVTHQGLSSPVTKSFNRGEC heavy 1: not shown light 2: not shown heavy 2: EVQLVESGGGLVKPGGSLRLSCAASGFTFSNAWMSWVRQAPGKELEWVGRIKSKTDGGTTDYTAPVKGRFTISRDDSKNTLYLQMNSLKAEDTAVYYCTTDRTGYSISWSSYYYYYGMDVWGQGTTVTVSSASTKGPSVFPLAPSSKSTSGGTAALGCLVKDYFPEPVTVSWNSGALTSGVHTFPAVLQSSGLYSLESVVTVPSSSLGTQTYICNVNHKPSNTKVDKKVEPKSCDKTHTCPPCPAPELLGGPSVFLFPPKPKDTLMISRTPEVTCVVVDVSHEDPEVKFNWYVDGVEVHNAKTKPCEEQYGSTYRCVSVLTVLHQDWLNGKEYKCKVSNKALPAPIEKTISKAKGQPREPQVYTLPPSRKEMTKNQVSLTCLVKGFYPSDIAVEWESNGQPENNYKTTPPVLKSDGSFFLYSKLTVDKSRWQQGNVFSCSVMHEALHNHYTQKSLSLSPGK |  |  | 81% | 62%
7 | iPS:327273 (bispecific antibody, human IgG1, kappa, lambda, N297G) light 1: not shown heavy 1: not shown light 2: not shown heavy 2: EVQLVESGGGLVKPGGSLRLSCAASGFTFSNAWMSWVRQAPGKELEWVGRIKSKTDGGTTDYTAPVKGRFTISRDDSKNTLYLQMNSLKAEDTAVYYCTTDRTGYSISWSSYYYYYGMDVWGQGTTVTVSSASTKGPSVFPLAPSSKSTSGGTAALGCLVKDYFPEPVTVSWNSGALTSGVHTFPAVLQSSGLYSLESVVTVPSSSLGTQTYICNVNHKPSNTKVDKKVEPKSCDKTHTCPPCPAPELLGGPSVFLFPPKPKDTLMISRTPEVTCVVVDVSHEDPEVKFNWYVDGVEVHNAKTKPCEEQYGSTYRCVSVLTVLHQDWLNGKEYKCKVSNKALPAPIEKTISKAKGQPREPQVYTLPPSRKEMTKNQVSLTCLVKGFYPSDIAVEWESNGQPENNYKTTPPVLKSDGSFFLYSKLTVDKSRWQQGNVFSCSVMHEALHNHYTQKSLSLSPGK |  |  | 81% | 10%
8 | iPS:327274 (bispecific antibody, human IgG1, kappa, lambda, N297G) light 1: DIQLTQSPSFLSASVGDRVTITCRASQSIGRSLHWYQQKPGKAPKLLIKYASQSLSGVPSRFSGSGSGTEFTLTISSLQPEDFATYYCHQSSRLPFTFGEGTKVDIKRTVAAPSVFIFPPSDEQLKSGTASVVCLLNNFYPREAKVQWKVDNALQSGNSQESVTEQDSKDSTYSLESTLTLSKADYEKHKVYACEVTHQGLSSPVTKSFNRGEC heavy 1: not shown light 2: not shown heavy 2: EVQLVESGGGLVKPGGSLRLSCAASGFTFSNAWMSWVRQAPGKELEWVGRIKSKTDGGTTDYTAPVKGRFTISRDDSKNTLYLQMNSLKAEDTAVYYCTTDRTGYSISWSSYYYYYGMDVWGQGTTVTVSSASTKGPSVFPLAPSSKSTSGGTAALGCLVKDYFPEPVTVSWNSGALTSGVHTFPAVLQSSGLYSLESVVTVPSSSLGTQTYICNVNHKPSNTKVDKKVEPKSCDKTHTCPPCPAPELLGGPSVFLFPPKPKDTLMISRTPEVTCVVVDVSHEDPEVKFNWYVDGVEVHNAKTKPCEEQYGSTYRCVSVLTVLHQDWLNGKEYKCKVSNKALPAPIEKTISKAKGQPREPQVYTLPPSRKEMTKNQVSLTCLVKGFYPSDIAVEWESNGQPENNYKTTPPVLKSDGSFFLYSKLTVDKSRWQQGNVFSCSVMHEALHNHYTQKSLSLSPGK |  |  | 87% | 22%
9 | iPS:327269 (bispecific antibody, human IgG1, kappa, lambda, N297G) light 1: DIQLTQSPSFLSASVGDRVTITCRASQSIGRSLHWYQQKPGKAPKLLIKYASQSLSGVPSRFSGSGSGTEFTLTISSLQPEDFATYYCHQSSRLPFTFGPGTKVDIKRTVAAPSVFIFPPSDEQLKSGTASVVCLLNNFYPREAKVQWKVDNALQSGNSQESVTEQDSKDSTYSLESTLTLSKADYEKHKVYACEVTHQGLSSPVTKSFNRGEC heavy 1: not shown light 2: not shown heavy 2: not shown |  |  | 79% | 8%
10 | iPS:327275 (bispecific antibody, human IgG1, kappa, lambda, N297G) light 1: EIVLTQSPATLSLSPGERATLSCRASQSVGRSLHWYQQKPGQAPRLLIKYASQSLSGIPARFSGSGSGTDFTLTISSLEPEDFAVYYCHQSSRLPFTFGEGTKVDIKRTVAAPSVFIFPPSDEQLKSGTASVVCLLNNFYPREAKVQWKVDNALQSGNSQESVTEQDSKDSTYSLESTLTLSKADYEKHKVYACEVTHQGLSSPVTKSFNRGEC heavy 1: not shown light 2: not shown heavy 2: EVQLVESGGGLVKPGGSLRLSCAASGFTFSNAWMSWVRQAPGKELEWVGRIKSKTDGGTTDYTAPVKGRFTISRDDSKNTLYLQMNSLKAEDTAVYYCTTDRTGYSISWSSYYYYYGMDVWGQGTTVTVSSASTKGPSVFPLAPSSKSTSGGTAALGCLVKDYFPEPVTVSWNSGALTSGVHTFPAVLQSSGLYSLESVVTVPSSSLGTQTYICNVNHKPSNTKVDKKVEPKSCDKTHTCPPCPAPELLGGPSVFLFPPKPKDTLMISRTPEVTCVVVDVSHEDPEVKFNWYVDGVEVHNAKTKPCEEQYGSTYRCVSVLTVLHQDWLNGKEYKCKVSNKALPAPIEKTISKAKGQPREPQVYTLPPSRKEMTKNQVSLTCLVKGFYPSDIAVEWESNGQPENNYKTTPPVLKSDGSFFLYSKLTVDKSRWQQGNVFSCSVMHEALHNHYTQKSLSLSPGK |  |  | 85% | 86%
